Residue numbers refer to the chain shown, from its start.

Common to all, as to experiment: luminescence complementation
Conditions in all cases: chains peptide; modification not given

For test [1], the target named is VA.
The target of test [2] is AA.
Test [3] has as its target VT.
Test [4] concerns the target T1, NLpoly 5P.
T1 chain: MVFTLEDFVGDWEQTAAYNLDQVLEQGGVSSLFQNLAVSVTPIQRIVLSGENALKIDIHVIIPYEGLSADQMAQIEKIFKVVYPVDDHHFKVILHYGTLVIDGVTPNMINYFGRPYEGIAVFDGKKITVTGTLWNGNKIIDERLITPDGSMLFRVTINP

For test [5], the target named is T2, GTA.
T2 chain: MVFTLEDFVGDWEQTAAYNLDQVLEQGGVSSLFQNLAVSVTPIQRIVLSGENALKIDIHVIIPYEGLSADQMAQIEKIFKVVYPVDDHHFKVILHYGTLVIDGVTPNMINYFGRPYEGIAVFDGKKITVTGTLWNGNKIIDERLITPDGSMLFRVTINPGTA

Test [6] addresses T3, ATG.
T3 chain: T2 chain with G160A, A162G

The target in test [7] is T4, VTG.
T4 chain: T2 chain with G160V, A162G

B1: NLpep81 (peptide)
chain: SGWRLFKKISN
On to B1, for which the equilibrium dissociation constant (Kd) turned out to be 132 nM in test [1], 115 nM in test [2], 137 nM in test [3] and 110 nM in test [4].

B2: NLpep82 (peptide)
chain: GWRLFKKISN
For the molecule B2, the Kd in test [5] was 254 nM; in test [4] it was 215 nM; in test [6] it was 230 nM; in test [7], 276 nM.

The values are drawn from patent US20200292534A1.
